# B1: Myocyte-specific enhancer factor 2A (Homo sapiens), Q02078-1 (parent)
# chain: MGRKKIQITRIMDERNRQVTFTKRKFGLMKKAYELSVLCDCEIALIIFNSSNKLFQYASTDMDKVLLKYTEYNEPHESRTNSDIVEALNKKEHRGCDSPDPDTSYVLTPHTEEKYKKINEEFDNMMRNHKIAPGLPPQNFSMSVTVPVTSPNALSYTNPGSSLVSPSLAASSTLTDSSMLSPPQTTLHRNVSPGAPQRPPSTGNAGGMLSTTDLTVPNGAGSSPVGNGFVNSRASPNLIGATGANSLGKVMPTKSPPPPGGGNLGMNSRKPDLRVVIPPSSKGMMPPLSEEEELELNTQRISSSQATQPLATPVVSVTTPSLPPQGLVYSAMPTAYNTDYSLTSADLSALQGFNSPGMLSLGQVSAWQQHHLGQAALSSLVAGGQLSQGSNLSINTNQNISIKSEPISPPRDRMTPSGFQQQQQQQQQQQPPPPPQPQPQPPQPQPRQEMGRSPVDSLSSSSSSYDGSDREDPRGDFHSPIVLGRPPNTEDRESPSVKRMRMDAWVT
# Variants of: B1
# Settings: with sumo2_human SUMO2, P61956
# Chain of sumo2_human SUMO2, P61956 (P61956 whole entry): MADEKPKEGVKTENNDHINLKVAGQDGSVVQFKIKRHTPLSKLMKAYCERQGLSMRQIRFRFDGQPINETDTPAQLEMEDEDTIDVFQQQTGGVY
row,effect of a mutation on the interaction,Variant
1,disrupting interaction,K403R
2,disrupting interaction,S408A
